Measurements from the supplement of paper PMC12636428.

Test system: Saccharomyces cerevisiae
Assay: transcriptional activation domain activity (GFP:mCherry ratio, weighted mean of sorted bins, harmonized to initial dataset scale) (arbitrary fluorescence ratio units); higher = stronger transcriptional activation
Details: beta-estradiol 1 µM; induction time 4 h
In short: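 In diploid yeast carrying a GFP reporter, barcoded protein tiles fused to an estradiol-inducible synthetic transcription factor were integrated at the URA3 locus. Cultures diluted 1:5 into SC with 1 uM beta-estradiol were kept at 30 °C for 4 hours, then sorted by GFP:mCherry ratio into 8 bins before barcode sequencing. Tiles with under 50 reads were excluded. The activation activity reported here is the read-weighted mean of bin median fluorescence, averaged across barcodes and linearly rescaled to the initial dataset.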

| Sequence | transcriptional activation domain activity |
| --- | --- |
| LILLRLLWPVTLYFFVSLMYSLLSLAFGVPFSRNFGHAGFLIYWMMSWCSMSA | 62400 |
| MPWFIVCPLIFCSFGPFDALLSVLFFFYEHHFLLVIFPLTLIMQFSFLLSYFS | 53100 |
| VQALASGDFDAGDGGRTTRPLFRKQKGASLFFVTSVCDTVCLAWTVVVHGHRQ | 20600 |
| RKERKREKESERRERHHRRSQTHSSDEARERHRDGKTKQSRSSDRDPRKTRAR | 30800 |
| MFVHWAAVFCLFFFCLAIIHPYLPVAFFFCSIYYKPFFLRLPRFLFGFWFFFS | 47700 |
| LLQMDKAGFVKDEITDVFALVVCRNLSLFHICAYILNVYRNYIMMVLEALRAQ | 64800 |
| MFCLRSWLPLLFIPTNAPPIFIFIFFFLNFFLSRPCVYCSFLLLILCLTSCYW | 36600 |
| MILLPSLWLLSLVVIFPVCYFYIQKSFPFPSSLFCIVCPITIYIINILSSHVL | 33900 |
| ITLYPPNPYTNEPVPIRPISYLHLSGLLNMYVIRRLRRENWIRIFFRILFPFF | 26700 |
| PIHALFCTHIWLLFKLCILCVLFLLSLLCLYGGSMINTGLRIILHLLLCVYLF | 81800 |
| LQQTKRQHSAPSQISANENNIYNLGTLEEFVSSGDLTDLYHTLWNDNTSYPFL | 128000 |
| MYDACLCGRLGFFYLLLVFFLSSVFHSHLFFLPFFGLFYLLRYFFFNFSTFVA | 52700 |
| KEESGAKTPQSPASKSADDKNATREKEGAGSPDAAKGKGNEEVQTESGRDDRK | 28400 |
| RHLGSLAYLGNTAVGEFGWGYKMIGGLYAQYLWRSVYWSKQVSLRTRINLSID | 54500 |
| FFFSSIFFIVFGGPGQLFFFFSILLFLYPISTFMRCIIHRVFLLFFAFFFFLF | 29400 |
| QLYSNNFQQSYPNGMVPGYYPKMPYNPMGGDPLLDQAFYGADDFFFPPEGCDN | 77800 |
| PVVDLNSCFSNGFNNEKQEIEMETDDSPILLMSSSASRENSNTFSVIQRTPDG | 52900 |
| VYTDLIRIIGDTKPILLDNYHNAMRRTMSVVIGFRVFYYHNEWHRAKGFIRKA | 38400 |
| EELWTDVDLYNAQFFFIKLLLHFNDPIYGPNTHELLIVMLGQKGGLYPLWQLL | 59700 |
| PNYEQHPAPAPAPAPGNKPEEHHEEKPEEHHEEKPSYEQHPAPAPAYQANAPH | 19400 |
| NGPGTCVVLVLITYIRRMLGLRYSQVIYVESFARVKKLSLSGKLLKPFVDKFV | 54600 |
| MSLASLAAQRSNCMKRRVGCVVVRDKRVVSTGYNGTPRGLRNCGEGGCGRCNE | 21100 |
| MRYRPSEDLGKKLLLLFIYILFRGKLVVNPFHFFSSFLSFFFFFFFVFFALLL | 35900 |
| FSWVELCLSVTWWFFPACLLLSDTLVLVYLTPGLDVLVPFSMIFVYCFLGLPP | 52300 |
| GTAHHHDPNDPKRPRACEACRGLKVRCEPDPTNPNPDGPCKRCAKAGRACLVT | < 6570 |

| Sequence | transcriptional activation domain activity |
| --- | --- |
| YFRAEAMKTFFSRNYWQLEVRLYVPTKRKGIFHGKDWRINVLLGMWWVVVHIA | 55100 |
| SSSEDDGKAGEGSSSSSDSEKARGRKKAKKSKEKGKGKATEGNSSSSSSDDDS | 21100 |
| YVRRARGYVMYGLFQLMLRFLLAGFFFFSFRGGDMGIGCGYRLLLLLFFFFIY | 35800 |
| LSSSSSVQTSAATTVVLVSGSDDKLVKAAGDALRARLGVKGGGKGQKWSGKFT | 17600 |
| MSQSFLFCPFQCLSLYLFPFCLCFCFPTLAFLSRFSYFILVLFSFLPLLAFVA | 18500 |
| GVSMGSGYFFMVWLTMWLYSELNFWVIDGVCSLVEMQWMPFFILSWIICQVAG | 50800 |
| PEQSSSNAVSDAADQLANVKLEDGTNAAASSAPRTRKPRARKPKRKAAAANAS | 12100 |
| ITFLFIFFFYFFTYSFFYISFFRTCFPEFAHQMFEMVLLWNLFLLFVFCLFFF | 57600 |
| AILIRSIFRVAEFAGGCVVSFSLWMCHKTTCIFLRFDTLPLWLAMSLYCVVWP | 49700 |
| KKRRKKAKEGAERGKKKRKHTDDGAGVADGVDQRDSQRESDESSADEDGNSGK | 38300 |
| MSRCNSSMFMSMFDSLGLFLFVIFIFLFFELHSFWWDLFSLFFVFVWFNFSIS | 41400 |
| VFWRSLFNRVFDFGFDLVLFVFFSLALSLYFVVSHSKSLPFWFMCFFFIPLFN | 78000 |
| MIQTPLFYYLFYILFYFIFIFIYSLLGFFLIFYLFVLFSFHFCFPPPPPFSFF | 46900 |
| LAHCRAVVIRRVDGTAFEPVLRQAESLAVARTWLDRLFLCAYWMLTWFLADIV | 56400 |
| LLILSLTVPFLHGLLRPHTHYVHLLVVVFLTFSPFFVILTISYEGLFYVIFCI | 57900 |
| LCYQRMLLRVLLSFCDWIIKLESASQASKLGESMILARRSVDLLVIAIINVGT | 40700 |
| EGSGEEAGGEGSGGEEDEEDEAGGGGDDADGRRGEDDGADEGTAGARAAAKAA | 34900 |
| VPLHISLPSLVIDVRVIGEPGLYFADLGCCYCLDAELQITHIHGLFLHVVFIL | 56600 |
| LIVVCPCLNRAHPTCLKELQTDYICNMCNSIYQLKYIRFAQLLCFACHVLSLA | 84300 |
| MRTLHGLVYFFPFILYHRLVFLWLRVLALSRYVFLFSVCFPWSVLVTFVIFLY | 80100 |
| VATADVCMVTHFLILLLLAAITGAVLVSVFAFLCVICPPHLRRRPVFMLNLLA | 35400 |
| KSKAANAKGKKKGKKGKKNKKGKKGKKAKNAKKAKAVKVAKAPVAKAPAPAAK | 17700 |
| NNSINATPIVDNSSGSQLPNGFDRGQANNTPFPGYFGGLDLFDYDFLFGNDFA | 133000 |
| GNDEAGAEDTDEDEIEGEGEEGQAPADGNEEEGAGEGESSRAMKKIGKKKAEK | 16600 |
| RLLNALLLPPYLEQIMYFGTLACFDAWLYTFTILPMRFISAVGVLVKWWLYLI | 47500 |

| Sequence | transcriptional activation domain activity |
| --- | --- |
| PKRASQGRNFNTLFDKYFTGKDWEIHIMRTLRPDIFILLCVLFVPTEFKEIHD | 37700 |
| QAATGVGILLLLHDFKRVSIVILAQDGCDDEGWPNQLVAFAALLRSRLLKGGE | 22100 |
| FPRLVGCIAASLEGLPSTRNGRTAYCVLRVVASYFLCLIRNLMFSDLPVVRCR | 68700 |
| RKAEEEEEEEAEAKAEKKKPAHGVPFEGTSKSARARARKRAKKEAEAAAATPA | 17800 |
| DQKLPNPDDFANFEARIKLLSYDDRLSFYQRYCLKINMQVYYYVLSYILMLTS | 53300 |
| SKNDSASDEEEEGDDLPSAYCTVILNHQKVFKTRTKPKNSKPFFNAGCERFIP | 57400 |
| VIFSFLVLNFFYFSISFFLSSSFISYFHFHLSLFPFPFSFVFLIHYLFSFIVN | 26300 |
| MSTLHWNMIFLVFFFWVVDVLFAWIMEVGMMVGVHVAYAYGDCGGPVLFMVPF | 71700 |
| LTLFVHFVKLSGILGEVLRRIYSPKAKINGYRTKTMSQTVWSLQRMLNEWLTN | 53300 |
| KQYCVRPNSGRIEPGKEVEVTVLLQAMKQEPPIDAKCRDKFLVQSVAVTADKE | 51300 |
| TPYWVLWNLRSSYGPVWQFLLKWIPFNMLLHRYYHCVKMELGYLFIFGNDFLR | 56300 |
| KKEEVKQEPTPAAAPEASTSDRGRGRGRGRGEGRGRGDGTRGRGRGGARPAGP | 34900 |
| SPWVSWADTHSNFSRVVQVPSIYWRADPYSTASAETLRWATVVCVLLFFAYFR | 42700 |
| YICQYHGSLIGKHFKSLMQVMPFLIYDLVAQDILCAWNIIGVLVVLLWHTEIE | 81900 |
| TNTGFGASNTPAGGAGGGGGIFGSGTSGFGGGTSAFGAANNNNAFGAKPAFGA | 45600 |
| LLRALSDLRRWRRKYTMLLELPDPFKSQRQHAHEYQLAIPLVEEAVLSFFLFL | 57600 |
| VGGEANGEVVKRKSKKKGGKEETDTEVVDGEDQSSRKVATRKLSRGKAEKKAK | 48900 |
| GGKKKKAAAAVLETETEGEGEKENKSAEKGKAGSNGGGKKGKGKKGANGVANG | 23400 |
| LLTFKLHRLFVVSQKMEDEGVRKLILHLTCCLLPKPNRDSMEAICLFLRWVAS | 83200 |
| RGEGDSKSDGKSDGKSEDKAENKGEEAPLVSEKDLVILAEHDLNGRQIKNVIK | 11000 |
| VCVCVWELVLVLVVWCCHCFSFVHSLHFLPWLLFSSPLVFLFPFPFFFFCLFL | 68600 |
| MTLVVMMILPPLASLDCFLLSFFFSLLLSPTFPLVLFFSVYKFFHFSTFPFFV | 54800 |
| IVCGCMGAAGFRYFLNLPFLWFFLLHWCWWFTNDYLLYHVLVQEHTLPFNKFV | 32500 |
| RMIGLPILLWLGTLTCQIGLLVLLRSVVFGQTNSGNVLPWGLGFWALTISTNI | 71800 |
